Here are results for 1 substance from paper PMC11369088.

This experiment has as its target C-terminal FLAG-tag TEX264 (UniProt Q9Y6I9). In words: co-IP; FLAG co-IP of FLAG-tagged ER-phagy receptor from HEK293 Tg-NLuc cells in TNI buffer (50 mM Tris pH 7.5, 150 mM NaCl, 0.5% IGEPAL CA-630), four washes; Tg-NLuc on the resin read by nano-glo luciferase assay; against GFP control.
Sequence of UniProt Q9Y6I9 (Q9Y6I9 whole entry): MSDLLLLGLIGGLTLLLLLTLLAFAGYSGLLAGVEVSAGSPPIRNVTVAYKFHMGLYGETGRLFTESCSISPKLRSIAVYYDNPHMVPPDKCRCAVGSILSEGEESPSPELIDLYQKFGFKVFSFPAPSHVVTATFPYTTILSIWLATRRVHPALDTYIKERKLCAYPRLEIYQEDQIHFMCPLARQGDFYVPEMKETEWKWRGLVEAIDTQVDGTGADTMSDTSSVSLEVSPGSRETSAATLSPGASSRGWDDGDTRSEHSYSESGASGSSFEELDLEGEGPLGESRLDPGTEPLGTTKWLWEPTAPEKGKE

The substance “nanoluciferase-tagged thyroglobulin C1264R (C1264R Tg-NLuc), P01266 20-2768” registered a fold interaction against A2234D Tg of 2 fold and a fold interaction against WT Tg of 3 fold.
